Values joined by “and” are separate entries in the source; they are usually repeats but may differ in a detail not shown here. Equal entries are not always repeated.
Columns and labels:
[1] = system: Human renal carcinoma cell line TK-10; assay: IL-8 release from IL-25/TNFa-treated TK-10 cells; format: cell-based; settings: 1 mg/mL; 100 ng/mL IL-25, 10 ng/mL TNFa; 24 or 48 hours
Method: Human renal carcinoma cell line TK-10 (NCI-60, NIH, Bethesda, MD) treated with human IL-25 (PeproTech) and TNFa (R&D systems) can lead to the release of IL-8, also known as neutrophil chemotactic factor, an important mediator of the immune reaction in the innate immune system response. Accordingly, the inhibitory effects of SM17 and its murine counterpart (D9.2) on IL-8 release from IL-25/TNFa-treated TK-10 cells was evaluated. Briefly, SM17 (human IgG4 isotype, SinoMab BioScience Limited, Hong Kong, China), SM17-IgG1 (human IgG1 isotype, SinoMab BioScience Limited) and its murine counterpart (D9.2, SinoMab BioScience Limited) at a concentration of 1 mg/mL were added to 2×10^4 of TK-10 cells in the presence of 100 ng/mL of IL-25 and 10 ng/mL of TNFa. Non-specific human IgG1 (SM03, anti-CD22 chimeric antibody, SinoMab BioScience Limited) was used as the control antibody. Treated cells were cultured in OptiMEM (Thermo Fisher Scientific) for 24 or 48 hours at 37° C., and the level of IL-8 release in the culture supernatant was measured by standard ELISA assay using a commercial kit (R&D systems).

hIL17RA = molecular target: T1, hIL17RA (Homo sapiens, UniProt Q96F46); assay: ELISA, SM17 specificity against IL-17 receptor subunits (IL17RA); format: binding; settings: 0.4 to 0.00064 μg/mL
T1 construct: purchased R&D systems
Method: A standard ELISA method was used to determine the specificity of SM17 against other human IL17 receptor subunits. Similarly, serially diluted SM17 at different concentrations (final concentrations at 0.4, 0.08, 0.016, 0.0032 and 0.00064 μg/m, respectively) was added to the wells of ELISA plates coated either with human IL-17 receptor subunits A, C, D and E (IL17RA, IL17RC, IL17RD, and IL17RE) (R&D systems).

murine IL17RB = molecular target: T2, murine IL17RB (Mus musculus, UniProt Q9JIP3); assay: ELISA, SM17 binding to coated IL-17RB protein (murine); settings: two wells
T2 construct: purchased R&D systems
T2 sequence (Q9JIP3 18-499): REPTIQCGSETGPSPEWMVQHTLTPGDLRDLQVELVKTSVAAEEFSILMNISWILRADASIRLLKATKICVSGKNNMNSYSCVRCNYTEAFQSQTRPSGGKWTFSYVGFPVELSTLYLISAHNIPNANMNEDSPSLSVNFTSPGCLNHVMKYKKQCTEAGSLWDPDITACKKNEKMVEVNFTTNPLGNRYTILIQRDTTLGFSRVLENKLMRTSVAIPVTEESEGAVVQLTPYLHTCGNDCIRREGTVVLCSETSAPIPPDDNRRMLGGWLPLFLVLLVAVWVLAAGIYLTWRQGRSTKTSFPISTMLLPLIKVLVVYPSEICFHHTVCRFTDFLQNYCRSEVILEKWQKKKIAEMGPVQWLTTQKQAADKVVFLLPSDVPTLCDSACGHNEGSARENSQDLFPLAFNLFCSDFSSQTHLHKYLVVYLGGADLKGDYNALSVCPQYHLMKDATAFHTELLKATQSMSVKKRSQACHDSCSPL
Method: A standard enzyme-linked immunosorbent assay (ELISA) method was used to determine the species specificity of SM17 against IL-17RB proteins. Briefly, IL-17RB proteins from human, mouse, cynomolgus or rhesus monkey (R&D systems, Minneapolis, MN) were diluted to 2.5 μg/ml in PBS and 50 μl of IL-17RB proteins were added to each well of ELISA strip. The strips were sealed with parafilm and incubated at 4° C. overnight for coating.
On the next day, strips were washed thrice with washing buffer (0.05% Tween 20 in PBS) and blocked with 100 μl per well with blocking buffer (3% BSA in PBS) for 2 hours RT before serially diluted SM17 (at a final concentration of 10, 2, 0.4, 0.08, 0.016, 0.0032, and 0.00064 μg/ml, respectively) was added.

[2] = molecular target: T3, rhesus monkey IL17RB expressed on HEK293 cells (Macaca mulatta, UniProt H9FWT9); assay: Flow cytometry, SM17 binding to HEK293 transfected with rhesus monkey IL-17RB; settings: SM17 1 μg/ml
T3 construct: transfected either with full-length human or rhesus monkey IL-17RB (SinoBiological, Beijing, China); host or cells: HEK293
T3 sequence (H9FWT9 18-502): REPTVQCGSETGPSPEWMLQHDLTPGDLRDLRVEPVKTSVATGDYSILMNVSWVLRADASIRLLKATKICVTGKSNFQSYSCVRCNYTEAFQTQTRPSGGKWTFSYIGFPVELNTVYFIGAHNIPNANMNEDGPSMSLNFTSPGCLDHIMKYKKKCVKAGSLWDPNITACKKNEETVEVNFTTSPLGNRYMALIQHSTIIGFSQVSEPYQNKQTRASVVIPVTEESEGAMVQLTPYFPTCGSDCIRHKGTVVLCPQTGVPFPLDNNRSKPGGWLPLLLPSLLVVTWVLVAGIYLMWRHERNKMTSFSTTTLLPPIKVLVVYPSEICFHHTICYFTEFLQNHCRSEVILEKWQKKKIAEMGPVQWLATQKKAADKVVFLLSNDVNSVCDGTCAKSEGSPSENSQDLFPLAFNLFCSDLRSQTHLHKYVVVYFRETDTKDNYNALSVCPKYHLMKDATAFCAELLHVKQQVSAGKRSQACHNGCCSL
Method: HEK293 cells (ATCC, Manassas, VA) transfected either with full-length human or rhesus monkey IL-17RB (SinoBiological, Beijing, China) were examined for binding to SM17 following standard protocol for flow cytometry. Wild-type HEK293 stained with IgG4 isotype control (Sino Biological) was used as the negative control and for gating purpose. Briefly, HEK293 cells at a density of 3×10^5 cells were seeded into each well of a 6-well plate. On the next day, human or rhesus Il-17RB full length cDNA were first cloned into pCMV3-untagged expression plasmid through standard molecular cloning technique, and then expression plasmids for human or rhesus IL-17RB were transfected into HEK293 cells by lipofection (Lipofectamine 3000 reagent; Thermo Fisher Scientific). Transfected cells were trypsinized, harvested, and fixed with 4% paraformaldehyde (5 minutes). SM17, or human IgG4 control at 1 μg/ml in washing buffer (3% BSA in PBS) were added to the resuspend cells for incubation at RT for 30 min before Alexa Fluor® 647-conjugated goat anti-human IgG specific antibody (1:2000 dilution in washing buffer) (Jackson ImmunoResearch) was added for flow cytometry analysis using the BD FACSVerse cell analyzer (Becton Dickenson, Franklin Lakes, NJ).

binding of SM17 to IL17RA (in words) (hIL17RA): No obvious bindings
OD 450 nm Absorption, murine IL17RB (murine IL17RB; SM17 0.0032 μg/mL): 0.12 and 0.19
OD 450 nm Absorption, murine IL17RB (murine IL17RB; SM17 0.016 μg/mL): 0.31
OD 450 nm Absorption, murine IL17RB (murine IL17RB; SM17 0.08 μg/mL): 0.78
OD 450 nm Absorption, murine IL17RB (murine IL17RB; SM17 0.4 μg/mL): 1.68 and 1.61
OD 450 nm Absorption, murine IL17RB (murine IL17RB; SM17 2 μg/mL): 2.46 and 2.44
OD 450 nm Absorption, murine IL17RB (murine IL17RB; SM17 10 μg/mL): 2.67 and 2.61
binding of SM17 to RhIL17RB-HEK293 [2]: 39%
Substance: SM17: humanized anti-IL17RB monoclonal antibody, human IgG4 isotype; HC SEQ ID NO: 32, LC SEQ ID NO: 33
release of IL-8 by IL-25/TNFa-induced TK-10 cells (in words) [1]: efficiently suppress the release of IL-8
